Reference: patent publication EP0959899A1

Legend:
[1] = biological target: human CD2 (CD2 antigen, entire CD2 molecule) (human) (UniProt P06729); test: flow cytometry on PBMC cultured with 500 ng/ml LO-CD2a, bound antibody detected with MARK-3-FITC (Figure 5a)
[2] = biological target: human CD2 (CD2 antigen, entire CD2 molecule) (human) (UniProt P06729); test: flow cytometry, two colour staining of PBMC with biotinylated LO-CD2a and Leu-5bPE (Figure 1)
[3] = biological target: human CD2 (CD2 antigen, entire CD2 molecule) (human) (UniProt P06729); test: flow cytometry, two colour staining of human PBMC (data not shown)

UniProt P06729, sequence (P06729 25-351): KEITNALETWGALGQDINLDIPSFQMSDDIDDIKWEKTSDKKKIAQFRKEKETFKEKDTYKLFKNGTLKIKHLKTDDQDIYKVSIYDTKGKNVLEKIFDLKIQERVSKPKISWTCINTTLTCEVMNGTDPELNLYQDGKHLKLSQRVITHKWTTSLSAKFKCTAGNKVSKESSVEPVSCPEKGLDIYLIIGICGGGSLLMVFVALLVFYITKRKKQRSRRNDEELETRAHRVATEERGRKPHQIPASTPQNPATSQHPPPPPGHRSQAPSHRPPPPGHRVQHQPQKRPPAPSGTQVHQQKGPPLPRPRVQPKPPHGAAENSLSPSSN

Row | percent of cells labelled by MARK-3 (bound LO-CD2a) at day 6 of culture [1] | % gated cells in the upper right (double positive) quadrant [2] | % total cells in the upper right (double positive) quadrant [2] | percent of the population marked by T11 that is recognized [3] | Substance
1 | 50% | 66 % gated | 17 % total | 90% | LO-CD2a rat (IgG2b-Kappa) anti-CD2 monoclonal antibody, produced by the cell line ATCC HB 11423
2 | – | 66 % gated | 17 % total | – | Leu-5b, mouse anti-human-CD2 monoclonal antibody (Becton Dickinson)
